Results published in the nanobody polyreactivity screen of Harvey et al. (2022).

Experiment: yeast display, Sf9 membrane polyspecificity reagent, FACS + sequencing; frameworks hold sequencing errors
Procedure, shortened: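 Galactose-induced (36–48 hours) yeast carrying a synthetic nanobody display library were exposed to 10% biotinylated, detergent-solubilized Sf9 membrane reagent at 4 °C for 1 hour. FACS followed streptavidin microbead enrichment, using low and high (top ~1%) gates for expression (anti-HA) and reagent binding (streptavidin). Colony PCR, MiSeq 2 × 250 sequencing and CDR-length filtering followed. Labels for polyreactivity reflect the gate of origin.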

Sequence | polyreactivity (PSR sort gate)
QVQIVESGGGLVQAGGSLRLSCDASGSIFYSNAIGWYRQAPGKERELVASIRGSGVSTYYADSVKGRFTISRDNAKNTVYLQMNSLKPEDTAVYYCAARYVRSYFGFYYWGQGTQVTVSS | high polyreactivity
QVQIVESGGGLVQAGGSLRLSFAASGSILYINAMGWYRQAPGKERELVAAISWSGDSTNYADSVKGRFTISRDNAKNTVYLQMNSLKPEDTAVYYCNADCDVVGVAHDYWGQGTQVTVSS | low polyreactivity
QVQIVESGGGLVQAGGSLRLTCAASGRTFYGNAMGWYRQAPGKERDLVADISSRSSSTSYADSVKGRFTISRDNAKYSVYFQMNSLKPEDTAVYYCATRYGYRTWYGYNYWGQGTQVTVSS | high polyreactivity
QVQIVESGGGLVQAGGSLRLTCAASGSIFPDYAMGWYRQAPGKERELVASISWDGGSTYYADSVKGRFTISRDNAKNTVYLQMNSLKPEDTAVYYCATELLVGGGFTVDYWGQGTQVTVSS | low polyreactivity
QVQIVESGGGLVQAGGSLRVSCAASGRTFSWYAMGWYRQARGKEWEIVAAIRWSGSSTYYADSVKGRFTISRDNAKNTVYLQMNSLKPEDTAVYYCAVAAGIPQRRYYYWGQGTQVTVSS | high polyreactivity
QVQIVESGGGLVQAGGSLRVSCAPSGNISYSYDMGWYRQAPGKERELVASITESGGSTYYADSVKGRFTISRDNAKNTVYFQMNILKPEDTAVYYCYWGHGTQVTVSS | low polyreactivity
QVQIVESGGGLVQAGGSLSLICAASGFIIDDNTMGWYRQAPGKERELVAAISYSAGSTYYADSVKGRFTISRDNAKNTVFLQMISVKTEDTAVYYCAAQHYWVTSYLSSYDYWGQGTQVTVSS | low polyreactivity
QVQIVESGGGLVQAGGSLSLSCAASGRTFVLYVMGWYRQAPWKEREFVADINAGGGSTYYADSVKGRFTISRDNAKNTVYLQMNSLKPEDTAVYYCAATRDLGQLFRFGYWGQGTQVTVSS | low polyreactivity
QVQIVESGGGLVQARCSLRLSFSASGYTFNNYAKGWYRQAPGTERELVAAISSSGGSTYFADSVKGRFTISRDNAKNTVYVQMNSLKPEDTAVYYCAARPFGLGDYRGYYYWGQGTQVTVSS | low polyreactivity
QVQIVESGGGLVQEGGSLRLRCAASGFTFGYYRMGWYRQAPGKERELVAAISRSAGSTYYADSVKGRFTISRDNAKNTVYLQMNSLKPEDTAVYYCNAAVFRTEGGYSTFNYWGQGSQVTVSS | high polyreactivity
QVQIVESGGGVVQAGGILRLSCAASGYTFTVYGMGWYRQAPGKERELVARITWSGGTTRYADSVKGRFTISRDNAKNNVYLQMNSLKPEDTAVYYCAASYWRPKRYRYDYWGQGTQVTVSS | high polyreactivity
QVQIVESGGRLVQAGCSLRLSCAASGSTFKINAMGWYRQAPGKEWELVAVIRSRGTSTYYADSVKGRFTISRDNSKNTVYLQMNSLKPVDTAVYNCAAGRINGGDYWGQGTQVTVSS | high polyreactivity
QVQIVESGGVIVQAGGSLRLSCAASGRIISYYTMGWYRQAPGKERELVAAISVSSGRTYYADSVKGRFTISRDNAKNTVYLQMNSLKPEDTAVYYCDAKYLARSAYDYWGQGTQVTVSS | high polyreactivity
QVQIVESGPGLVQAGASLSLSCAASGSIFRPYAMGWYIQAPGKDRELVAAITWSGGRTYYADSVKGRFTISRDNAKNTVYLKMNSLKREDTAVYYCAADDSEGFDYWGQGNQVTVSS | high polyreactivity
QVQIVESGRGLVQAGGSLRLSCAPSGFTLGFFAMGWYRQAPGKERELVAAINWRGGSTYYADSVKVRFTISRDNAKNTVYLQMNSLKPEDTAVYYCNRVYRPSRYDYWGQGTQVTVSS | high polyreactivity
QVQIVESGVGLVQAGGSLRLSCAASGTIFARYAMGWYRQAPGKERELVAAISWRGGRTYYADSVKGRFTISRDNAKNTVYLQMNSLKPEVTAVYYCAARRQQRGANGGDYWGQGTQVTLSS | high polyreactivity
QVQIVESWGCLVQAGGSLRLSCAASVNIFNVNAMGWSRQAPRKEREFLAAITSGANSYYADSEKGRFTISRDNAKNSVFLQMNSLKPEDTAVYYCAAEDGSYYRRNRFYYWGQGTQVTVSS | high polyreactivity
QVQIVKSGGGLVQAGGSLRLSCAASGFIIPEYTMGWYRQAPGKERELVAAISGSGGSTYYADSVKGRFTISRDNAKNTVYLQMNSLIPEDTAVYYCIAPVYTADGYRYGSVRFGYWGQGTQVTVSS | low polyreactivity
QVQLAESGGCLVQAGGRLRLSCAASGSTFPHYAMGWYRQAPGKERELVAAISVRGGRTYYADSVKGRFTISRDNAKNNDSLQMNSLKPEDTAVYYCNKYYDVTKYGYWGQGTQVTVSS | high polyreactivity
QVQLAESGGGLVQAGGSLRLSCAASGIIFYFYAMGWYRQAPGKERELVAAINSSSGRTYYADSVKGRFTISRDNAKNSVYLQMNSLKPEDTAVYYCAAYYYGSYDGTPYDYWGQGTQVTVSS | low polyreactivity
QVQLAESGGGLVQAGGSLRLSCAASGIIFYFYAMGWYRQAPGKERELVAAISGTGGRTYYADSVKGRFTISRDNAKNTVYLQMNSLKPEDTAVYYCNADDTPVPSIRFDYWGQGTQVTVSS | low polyreactivity

Sequence | polyreactivity (PSR sort gate)
QVQLAESGGGLVQAGGSLRLSCAASGSTFVAYAMGWYRQAPGKERELVAAITRSGGSTYYADSVKGRFTISRDNAKNTVYLQMNSLKPEDTAVYYCAARHYRSRDGYWGQGTQVTVSS | high polyreactivity
QVQLEDSGGGLDQAGVSLRLSCAASGSTFLLYAMVGYRQAPGKERELVAAISRSSTSTYYADSVKGRFTISRDNAKNTVYLQMNSLKPEDTAVYYCAAVVTVQYSQPYDHWGQGTQVTVSS | high polyreactivity
QVQLEDSGGGLVQAGGSLRLSCAASGFIFGSYTMGWYRQAPGKERELVAVITWSGSSTYYADSVKGRFTISRDNAKYPVYLQMNSLKPEDTAVYYCNAVKFGGYDYWGQGTQVTVSS | high polyreactivity
QVQLEDSGGGLVQAGGSLRLSCAASGFTFYSYAMGWYRQATGKERELVAAISWSGTRTYYADSVKGRFTISRDNAKNTVYLQMNSLKPEDTAVYYCAARGYRYGYGYWGQGTQVTVSS | high polyreactivity
QVQLEDSGGGLVQAGGSLRLSCAASGLIFLDYAMGCYRQAPGKERELVAAISRSGGRTYYADSVKGRFTISRDNAKNTVYLQMNIVKPEDTAVYYCNAYQSARKKATASTYDSWGQCTQVTVSS | high polyreactivity
QVQLEDSGGGLVQAGGSLRLSCAASGRTFNKYAMGWYRQAPGKERELVAAINTSGGSTYYADSVKGRFTISRDNAKNTVYLQMNSLKPEDTAVYYCAAQSRSVYGRSYGYWGQGTQVTVSS | high polyreactivity
QVQLEDSGGGLVQAGGSLRLSCAASGRTFTYYAMGWYRQAPGKERELVATISYSGGSTYYADSVKGRFTISRDNAKNTVYLQMNSLKPEDTAVYYCATSGSGPWWKLYYSGQGTQVTVSS | low polyreactivity
QVQLEDSGGGLVQAGGSLRLSCAASGSIIGSYAMGLYRQAPGKERELVAAISRRGGSTYYADSVKGRFTISRDNAKNTVYLQMNSLKPEDTAVYYCARRDYGVLNKGLGQEGDYWGQGTQVTVSS | low polyreactivity
QVQLEDSGGVLVQAGGSLRLSCAASGFIYRFYPMGWYRKAPGKERELVAGISSSGGSTYYADSVKGRFTISRDYAKNTVYLQMNSLKPEDTAVFYCNAKRSDQSYKTFNYWGQGTQVTVSS | low polyreactivity
QVQLEESAGGLVQAGGSLRLSCAASGIIFSGNAMGWYRQATGKERELVAAITLSGGSTYYADSVKGRFTISRDNAKNTVYLQMNSLKPEDTAVYYCNAVYDTIYSLRDIDTEYGSWGQGTQVTVSS | low polyreactivity
QVQLEESAGGLVQAGGSLRLSCAASGRIFVRNAMGWYRQAPGKERELVADITNGGSTNYADSVKGRFTISRDNAKNTVYLQMNSLKPEDTAVYYCAATYPYSWVYSGYYYWGHGTQVTVSS | low polyreactivity
QVQLEESAGGLVQAGGSLRLSCAASGYTFGRYAMGWYRQEPGKERELVAVITTGDSTYYADSVKGRFTISRDNAKNTVNLLMNSLKPEDTAVYYCAADGRLSRPFDYWGQGTQVTVSS | low polyreactivity
QVQLEESCGGLVQAGGSLRLSCAASGRTFRYYPMGWYRQAPGKERELVAAITTGSSTYYADSVKGRFTISRDNANNTVYLQMNSLKPEDTAVFYCNVFQGTRYGYWGQGTQVTVSS | low polyreactivity
QVQLEESGAGLVQAGGSLRLSCAASGSIFVRNAMAWYRHAPGKERELVAVITRSAGRTYYADSVKGRFTISRDNAKNTVYLQMNSLKPEDTAVYYCAASPSTPNKYGSWGQGTQVTVSS | high polyreactivity
QVQLEESGGCIVQAGGSHRLSCAASGRTFTLNAMGWYRQAPGKEREFVAAISNSGVRTYYADSVKGRFTISRDNAKNTVFLQMNSLKPEDTGVYYCARTYQVGDSIDDYWGQGTQVNVSS | low polyreactivity
QVQLEESGGCLVQAGGSLRLRCAASGRIVALNAMGWYRQAPGKERELVATIRCRGGATYYADSVKGRFTISRDNAKNTVYLQMNSLKPEDNAVYYCDAFTGNRRTYDYWGQGTQVTVSS | high polyreactivity
QVQLEESGGCLVQAGGSLRLSCAASGITFYGNVMGWYRQAPGKERELVAAISWSGGRTYYADSVKGRFTISRDNAKNTVSVQMNSLKPEDTAVDFCAAEGTTNRGVYASYDYWGQGTQVTVSS | low polyreactivity
QVQLEESGGGIVQAGGSLRLSCAASGRIFPYYAMGWYRQAPGKERALVAVISYSSGITYADSVKGRFTISRDNAKNTVYLQMNSLKPEDTAVYYCAADKWAFGATQYDYWGKGTQVTVSS | low polyreactivity
QVQLEESGGGLFQAGGSLRLSCAASGRTFRLYDMGWYRQAPGKERELVAAISKSGGSTYYADSVKGRFTISRDYAKNPVYVQMNSLKPEDTAVYYCAAGTRVCEYDYWGQGTQVTVSS | high polyreactivity
QVQLEESGGGLFQAGGSLRLSCAASGSTITRYAMGCYRQAPGKEREIVAVISRSGGSTYYADSVKGLFTISRDNAKNTVYLQINSLKPEDTAVYYCAAKYYGGRRSPYSYGYWGQGTQVTVSS | high polyreactivity
